Measurements as given in patent publication US20200347139A1 (INHIBRX BIOSCIENCES, published 2020).

T1: human CLEC12a expressed on transiently transfected HEK 293 cells (human, UniProt Q5QGZ9 1-265)
T1 construct: also called CLL-1; CLL1
T1 sequence: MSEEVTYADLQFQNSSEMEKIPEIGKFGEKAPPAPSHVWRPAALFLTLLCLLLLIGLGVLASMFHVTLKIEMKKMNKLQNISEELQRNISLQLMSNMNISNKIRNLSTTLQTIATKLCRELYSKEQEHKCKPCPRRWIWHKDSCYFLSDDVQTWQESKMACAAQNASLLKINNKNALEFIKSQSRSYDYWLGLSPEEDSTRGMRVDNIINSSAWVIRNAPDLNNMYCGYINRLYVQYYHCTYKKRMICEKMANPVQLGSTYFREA

T2: mFc-CLEC12a-ECD (human)
T2 construct: It was immobilized on anti-mFc capture sensors for BLI; also called CLEC12a antigen
T2 chain: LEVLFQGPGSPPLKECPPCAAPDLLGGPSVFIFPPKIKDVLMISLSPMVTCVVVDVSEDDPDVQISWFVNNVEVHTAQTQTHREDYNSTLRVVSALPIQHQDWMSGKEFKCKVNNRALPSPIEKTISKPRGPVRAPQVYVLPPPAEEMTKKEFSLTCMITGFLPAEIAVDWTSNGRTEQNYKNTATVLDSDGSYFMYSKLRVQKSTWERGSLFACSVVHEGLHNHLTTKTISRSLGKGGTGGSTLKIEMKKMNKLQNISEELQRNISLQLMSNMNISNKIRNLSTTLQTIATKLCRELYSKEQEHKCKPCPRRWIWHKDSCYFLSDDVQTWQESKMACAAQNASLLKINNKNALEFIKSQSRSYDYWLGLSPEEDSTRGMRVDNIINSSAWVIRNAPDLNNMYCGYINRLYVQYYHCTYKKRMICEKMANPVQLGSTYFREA


Experiments:
[1] = biological target: T1, human CLEC12a expressed on transiently …; assay: flow cytometry on HEK 293 cells transfected with human CLEC12a; apparent Kd, one-site fit
Experimental: (§1) Binding of sdAbs to human CLEC12a was assessed by flow cytometry. […] HEK 293 cells were transiently transfected with a plasmid encoding CLEC12a (UniProt Accession No. Q5QGZ9.3; SEQ ID NO: 1) and used as the positive cell line, and untransfected HEK 293 cells were used as CLEC12a-negative cells. Each cell type was plated at 30,000 cells/well in FACS buffer (PBS 1% BSA, 0.1% NaN₃ pH 7.4) on a 96-well round-bottom plate. The sdAbs were diluted in FACS buffer in a 3-fold, 11 point serial dilution. The sdAb dilutions were added to the plated cells, and assay plates were incubated for 30 minutes at 4° C. After washing twice in 150 μL of FACS buffer, cells in each well were resuspended in 100 μL of 1:2000 Alexa Fluor 647-conjugated Anti-Human IgG secondary diluted in FACS buffer and incubated at 4° C. for 30 minutes. The cells were washed twice more, then bound antibody was detected by flow cytometry.
(§2) Flow cytometric analysis was performed on an Intellicyte iQue Plus and fluorescence was plotted as median fluorescence intensity. The apparent affinity (Kd, nM) was determined using one site binding non-linear regression in PRISM graph software.

[2] = biological target: T1, human CLEC12a expressed on transiently …; assay: flow cytometry on HEK 293 cells transiently transfected with human CLEC12a, Alexa Fluor 647 anti-human IgG secondary, median fluorescence
Experimental: as §1, §2

[3] = biological target: T2, mFc-CLEC12a-ECD; assay: BLI, mFc-CLEC12a-ECD on anti-mFc sensors first loaded with 100 nM hzMB11v13, then 100 nM second sdAb
Experimental: (§3) The epitopes of single domain antibodies (sdAbs) that comprise VHH domains that bind CLEC12a were compared using Bio-Layer Interferometry. 7 μg/mL of mFc-CLEC12a-ECD (SEQ ID NO: 87) was immobilized on anti-mFc coated capture sensors. 100 nM of one sdAb was then loaded onto the CLEC12a antigen and allowed to come to equilibrium. The sensors were then transferred into 100 nM of a second sdAb.

[4] = biological target: T2, mFc-CLEC12a-ECD; assay: BLI epitope binning; mFc-CLEC12a-ECD on anti-mFc sensors, 100 nM sdAb
Experimental: as §3

Kd [1]	EC50 (read off the curve) [2]	binding result [3]	binding result [4]	Binder
0.05 nM				ME06 sdAb (VHH ME06 fused to human IgG1 xELL Fc) (Fc fusion, Camelid parental VHH; No linker is stated; also called ME06-IgG1) QVQLVQSGGGLVQAGGSLRLSCVASGFTFDDYAIGWFRQAPGKEREGVSCISNSDGSTYYADSVKGRFTISSDNAKNTVYLHVNSLNPEDTAVYYCALREGLPLLLDSLWRQPVEYDYWGQGTQVTVDKTHTCPPCPAPGGPSVFLFPPKPKDTLMISRTPEVTCVVVDVSHEDPEVKFNWYVDGVEVHNAKTKPREEQYNSTYRVVSVLTVLHQDWLNGKEYKCKVSNKALPAPIEKTISKAKGQPREPQVYTLPPSRDELTKNQVSLTCLVKGFYPSDIAVEWESNGQPENNYKTTPPVLDSDGSFFLYSKLTVDKSRWQQGNVFSCSVMHEALHNHYTQKSLSLSPGK
58.6 nM	~50 nM			MB11 sdAb (VHH MB11 fused to human IgG1 xELL Fc) (Fc fusion, Camelid parental VHH; No linker between VHH and Fc is stated; Fc dimers are described only in general terms; also called MB11-IgG1) QVQLQQSGGGLVQPGGSLRLSCVASGFLFSIYDMNWYRQAPGKEREWIAGITNNGYSTAYTDSVQGRFTISRDNAKNTIYLQMTSLKPEDTAVYYCHADLTKCYDGEYAWGQGTQVTVDKTHTCPPCPAPGGPSVFLFPPKPKDTLMISRTPEVTCVVVDVSHEDPEVKFNWYVDGVEVHNAKTKPREEQYNSTYRVVSVLTVLHQDWLNGKEYKCKVSNKALPAPIEKTISKAKGQPREPQVYTLPPSRDELTKNQVSLTCLVKGFYPSDIAVEWESNGQPENNYKTTPPVLDSDGSFFLYSKLTVDKSRWQQGNVFSCSVMHEALHNHYTQKSLSLSPGK
1.2 nM	~1 nM			ME02 sdAb (VHH ME02 fused to human IgG1 xELL Fc) (Fc fusion, Camelid parental VHH; No linker is stated; also called ME02-IgG1) QVQLQQSGGGLVQVGGSQRLSCAASGRTFEYDDMVWFRQAPGKEREEVAGISWSGGSIYYADSVKGRFSISRDNAKNTVYLEMNRLKPEDTAVYYCNVGSYWGQGTQVTVDKTHTCPPCPAPGGPSVFLFPPKPKDTLMISRTPEVTCVVVDVSHEDPEVKFNWYVDGVEVHNAKTKPREEQYNSTYRVVSVLTVLHQDWLNGKEYKCKVSNKALPAPIEKTISKAKGQPREPQVYTLPPSRDELTKNQVSLTCLVKGFYPSDIAVEWESNGQPENNYKTTPPVLDSDGSFFLYSKLTVDKSRWQQGNVFSCSVMHEALHNHYTQKSLSLSPGK
0.87 nM	~0.8 nM	binds		hzME02v4 sdAb (VHH hzME02v4 fused to human IgG1 xELL Fc) (Fc fusion, Humanized version of ME02; No linker is stated; also called hzME02v4-IgG1) EVQLVESGGGEVQPGGSLRLSCAASGRTFEYDDMVWFRQAPGKEREEVAGISWSGGSIYYAESVKGRFSISRDNAKNTVYLEMNRLKPEDTAVYYCNVGSYWGQGTLVTVDKTHTCPPCPAPGGPSVFLFPPKPKDTLMISRTPEVTCVVVDVSHEDPEVKFNWYVDGVEVHNAKTKPREEQYNSTYRVVSVLTVLHQDWLNGKEYKCKVSNKALPAPIEKTISKAKGQPREPQVYTLPPSRDELTKNQVSLTCLVKGFYPSDIAVEWESNGQPENNYKTTPPVLDSDGSFFLYSKLTVDKSRWQQGNVFSCSVMHEALHNHYTQKSLSLSPGK
0.1 nM				MH07 sdAb (VHH MH07 fused to human IgG1 xELL Fc) (Fc fusion, Camelid parental VHH; No linker is stated; also called MH07-IgG1) QVQLVQSGGGLVQPGGSLRLSCVASGLLFSIYDMNWYRQAPGKEREWIAGITNNGYSTAYTDSVQGRFTISRDNAKNTVYLQMNSLKPEDTAVYYCHTDEWGREYWGQGTQVTVDKTHTCPPCPAPGGPSVFLFPPKPKDTLMISRTPEVTCVVVDVSHEDPEVKFNWYVDGVEVHNAKTKPREEQYNSTYRVVSVLTVLHQDWLNGKEYKCKVSNKALPAPIEKTISKAKGQPREPQVYTLPPSRDELTKNQVSLTCLVKGFYPSDIAVEWESNGQPENNYKTTPPVLDSDGSFFLYSKLTVDKSRWQQGNVFSCSVMHEALHNHYTQKSLSLSPGK
0.28 nM			binds	hzMH07v3 sdAb (VHH hzMH07v3 fused to human IgG1 xELL Fc) (Fc fusion, Humanized version of MH07; No linker is stated; also called hzMH07v3-IgG1; haMH07v3) EVQLVESGGGEVQPGGSLRLSCAASGLLFSIYDMNWYRQAPGKEREWVAGITNNGYSTAYAESVKGRFTISRDNAKNTVYLQMSSLRAEDTAVYYCHTDEWGREYWGQGTLVTVDKTHTCPPCPAPGGPSVFLFPPKPKDTLMISRTPEVTCVVVDVSHEDPEVKFNWYVDGVEVHNAKTKPREEQYNSTYRVVSVLTVLHQDWLNGKEYKCKVSNKALPAPIEKTISKAKGQPREPQVYTLPPSRDELTKNQVSLTCLVKGFYPSDIAVEWESNGQPENNYKTTPPVLDSDGSFFLYSKLTVDKSRWQQGNVFSCSVMHEALHNHYTQKSLSLSPGK
1.58 nM	1 to 2 nM			MC06 sdAb (VHH MC06 fused to human IgG1 xELL Fc) (Fc fusion, Camelid parental VHH; No linker is stated; also called MC06-IgG1) QVQLQESGGGLVQPGGSLRLSCAASGFTFSVYDMNWYRQTPGKEREWVAGISNNGFSTAYAGSVKGRFTISRDNAENTVYLQMNSLKSEDTAVYYCNLDVHGRVGAQGDYWGQGTQVTVDKTHTCPPCPAPGGPSVFLFPPKPKDTLMISRTPEVTCVVVDVSHEDPEVKFNWYVDGVEVHNAKTKPREEQYNSTYRVVSVLTVLHQDWLNGKEYKCKVSNKALPAPIEKTISKAKGQPREPQVYTLPPSRDELTKNQVSLTCLVKGFYPSDIAVEWESNGQPENNYKTTPPVLDSDGSFFLYSKLTVDKSRWQQGNVFSCSVMHEALHNHYTQKSLSLSPGK
14 nM	~10 nM		binds	hzMC06v2 sdAb (VHH hzMC06v2 fused to human IgG1 xELL Fc) (Fc fusion, Humanized version of MC06; No linker is stated; also called hzMC06v2-IgG1) EVQLVESGGGEVQPGGSLRLSCAASGFTFSVYDMNWYRQAPGKEREWVSGISNNGFSTAYAESVKGRFTISRDNAKNTLYLQMSSLRAEDTAVYYCNLDVHGRVGAQGDYWGQGTLVTVDKTHTCPPCPAPGGPSVFLFPPKPKDTLMISRTPEVTCVVVDVSHEDPEVKFNWYVDGVEVHNAKTKPREEQYNSTYRVVSVLTVLHQDWLNGKEYKCKVSNKALPAPIEKTISKAKGQPREPQVYTLPPSRDELTKNQVSLTCLVKGFYPSDIAVEWESNGQPENNYKTTPPVLDSDGSFFLYSKLTVDKSRWQQGNVFSCSVMHEALHNHYTQKSLSLSPGK
0.06 nM		binds		hzME06v16 sdAb (VHH hzME06v16 fused to human IgG1 xELL Fc) (Fc fusion, Humanized version of ME06; No linker is stated; also called hzME06v16-IgG1) EVQLVESGGGEVQPGGSLRLSCAASGFTFDDYAIGWFRQAPGKEREGVSTISSSDGSTYYAESVKGRFTISRDNAKNTVYLQMSSLRAEDTAVYYCALREGLPLLLDTLWRQPVEYDYWGQGTQVTVDKTHTCPPCPAPGGPSVFLFPPKPKDTLMISRTPEVTCVVVDVSHEDPEVKFNWYVDGVEVHNAKTKPREEQYNSTYRVVSVLTVLHQDWLNGKEYKCKVSNKALPAPIEKTISKAKGQPREPQVYTLPPSRDELTKNQVSLTCLVKGFYPSDIAVEWESNGQPENNYKTTPPVLDSDGSFFLYSKLTVDKSRWQQGNVFSCSVMHEALHNHYTQKSLSLSPGK
0.37 nM				MC02 sdAb (VHH MC02 fused to human IgG1 xELL Fc) (Fc fusion, Camelid parental VHH; No linker is stated; also called MC02-IgG1) QVQLVQSGGGLAQPGGSLRLSCTASGFTFRINDMGWYRQAPGKECEMVAGISNNGFSTAYADSVKGRFTISRDNAKNTVSLQMDSLKSEDTAVYYCHRTDDGAAHACSRGQGTQVTVDKTHTCPPCPAPGGPSVFLFPPKPKDTLMISRTPEVTCVVVDVSHEDPEVKFNWYVDGVEVHNAKTKPREEQYNSTYRVVSVLTVLHQDWLNGKEYKCKVSNKALPAPIEKTISKAKGQPREPQVYTLPPSRDELTKNQVSLTCLVKGFYPSDIAVEWESNGQPENNYKTTPPVLDSDGSFFLYSKLTVDKSRWQQGNVFSCSVMHEALHNHYTQKSLSLSPGK
0.35 nM			binds	hzMC02v6 sdAb (VHH hzMC02v6 fused to human IgG1 xELL Fc) (Fc fusion, Humanized version of MC02; No linker is stated; also called hzMC02v6-IgG1) EVQLVESGGGEVQPGGSLRLSCAASGFTFRINDMGWYRQAPGKECEMVAGISNNGFSTAYAESVKGRFTISRDNAKNTVYLQMSSLRAEDTAVYYCHRTDEGAAHACSRGQGTLVTVDKTHTCPPCPAPGGPSVFLFPPKPKDTLMISRTPEVTCVVVDVSHEDPEVKFNWYVDGVEVHNAKTKPREEQYNSTYRVVSVLTVLHQDWLNGKEYKCKVSNKALPAPIEKTISKAKGQPREPQVYTLPPSRDELTKNQVSLTCLVKGFYPSDIAVEWESNGQPENNYKTTPPVLDSDGSFFLYSKLTVDKSRWQQGNVFSCSVMHEALHNHYTQKSLSLSPGK
